Source: the supplement of paper PMC7125110
± gives the standard error. For part of these data: Fewer inactive variants are shown than the library holds.

B1: glmS ribozyme (parent)
chain: AUAAAAGCGCCAGAACUACAGAAAUGUAGUUGACGAGGAGGAGGUUUAUCGAAUUUUCGGCGGAUGCCUCCAAA

Key:
Settings in all cases: with glucosamine-6-phosphate
[1] = variants of: B1; assay: self-cleavage kobs at 40 uM GlcN6P; higher = faster cleavage; RNA array
In short: (§1)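 Barcoded ribozyme variants on sequenced MiSeq chips were transcribed in situ by E. coli RNA polymerase and followed at 37 °C through a hybridised Cy3 probe. Glucosamine-6-phosphate at 40 μM to 10 mM in HEPES/KCl/Mg(OAc)2 buffer was flowed in, and tiles were imaged over ~14 h. Signals were normalised to baseline and to non-cleaving reference variants, and per-tile medians were fit to one- or two-exponential decays to give kobs. Weighted Michaelis–Menten fits across concentrations gave kcat and KM.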

[2] = variants of: B1; assay: self-cleavage kobs at 160 uM GlcN6P; higher = faster cleavage; RNA array
In short: as §1

[3] = variants of: B1; assay: self-cleavage kobs at 640 uM GlcN6P; higher = faster cleavage; RNA array
In short: as §1

[4] = variants of: B1; assay: self-cleavage kobs at 10000 uM GlcN6P; higher = faster cleavage; RNA array
In short: as §1

[5] = variants of: B1; assay: kcat; higher = faster cleavage; RNA array
In short: as §1

[6] = variants of: B1; assay: KM; higher = weaker cofactor use; RNA array
In short: as §1

[7] = variants of: B1; assay: self-cleavage kobs at 2500 uM GlcN6P; higher = faster cleavage; RNA array
In short: as §1

| Variant | self-cleavage kobs at 40 uM GlcN6P [1] | self-cleavage kobs at 160 uM GlcN6P [2] | self-cleavage kobs at 640 uM GlcN6P [3] | self-cleavage kobs at 10000 uM GlcN6P [4] | kcat [5] | KM [6] | self-cleavage kobs at 2500 uM GlcN6P [7] |
| --- | --- | --- | --- | --- | --- | --- | --- |
| G44C G60C | < 1e-05 s⁻¹ | < 1e-05 s⁻¹ | < 1e-05 s⁻¹ | < 1e-05 s⁻¹ |  |  |  |
| U45C U69G C71U | < 1e-05 s⁻¹ |  |  |  |  |  |  |
| G60U G66U |  | < 1e-05 s⁻¹ | < 1e-05 s⁻¹ | < 1e-05 s⁻¹ | < 1e-05 s⁻¹ |  |  |
| A14U G66A | 0.000107 ± 1.8e-05 s⁻¹ | 0.000254 ± 3.9e-05 s⁻¹ | 0.00104 ± 0.00029 s⁻¹ | 0.00403 ± 0.00059 s⁻¹ | 0.00402 ± 0.0012 s⁻¹ | 2120 ± 870 µM | 0.00172 ± 0.0003 s⁻¹ |
| U47A G62U | < 1e-05 s⁻¹ | < 1e-05 s⁻¹ | < 1e-05 s⁻¹ | < 1e-05 s⁻¹ |  |  | < 1e-05 s⁻¹ |
| C11G A15C | < 1e-05 s⁻¹ | < 1e-05 s⁻¹ | < 1e-05 s⁻¹ |  |  |  | < 1e-05 s⁻¹ |
| G37U U54C |  |  |  |  |  | 2230 ± 960 µM |  |
| A15G A36U |  | < 1e-05 s⁻¹ | < 1e-05 s⁻¹ |  | < 1e-05 s⁻¹ |  |  |
| C10G G43U U47G C61A | < 1e-05 s⁻¹ |  | < 1e-05 s⁻¹ |  |  |  | < 1e-05 s⁻¹ |
| U31G G66C |  |  | 4.89e-05 ± 1.1e-05 s⁻¹ | 0.000146 ± 3.1e-05 s⁻¹ | 0.000137 ± 2.5e-05 s⁻¹ | 1360 ± 590 µM | 7.89e-05 ± 1.3e-05 s⁻¹ |
| U30G C71U | 0.00033 ± 5e-05 s⁻¹ | 0.000449 ± 0.00011 s⁻¹ | 0.00135 ± 0.00022 s⁻¹ | 0.00769 ± 0.0016 s⁻¹ |  |  | 0.00639 ± 0.0013 s⁻¹ |
| G29U G60C C70A | < 1e-05 s⁻¹ |  |  |  |  |  |  |
| A6G A36C G41U | < 1e-05 s⁻¹ |  | < 1e-05 s⁻¹ | < 1e-05 s⁻¹ |  |  |  |
| U31G C50G C67U | 8.62e-05 ± 1.8e-05 s⁻¹ |  |  | 0.000109 ± 2.3e-05 s⁻¹ |  |  |  |
| A39U C58G |  |  |  | 5.48e-05 ± 1.2e-05 s⁻¹ | 0.000106 ± 3.3e-06 s⁻¹ | 9290 ± 520 µM | 2.25e-05 ± 1e-05 s⁻¹ |
| A39U G66U | 0.000107 ± 1e-05 s⁻¹ | 0.000292 ± 5.6e-05 s⁻¹ | 0.000735 ± 8.7e-05 s⁻¹ | 0.00372 ± 0.00032 s⁻¹ | 0.0039 ± 0.0011 s⁻¹ | 2010 ± 860 µM | 0.0018 ± 0.00025 s⁻¹ |
| A48U C50A G66U | < 1e-05 s⁻¹ |  |  |  |  |  |  |
| C10A C58G |  |  |  |  | 1.34e-05 ± 2.4e-06 s⁻¹ |  |  |
| G44C C71G | < 1e-05 s⁻¹ | < 1e-05 s⁻¹ | < 1e-05 s⁻¹ | < 1e-05 s⁻¹ |  |  | < 1e-05 s⁻¹ |
